From a protein production outcome set (Wang et al. 2014)
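Further: failed if final PepcDB status was selected cloned or expressed and not failed if soluble or beyond.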

Assay: label from the status in PepcDB records
In the case of “MDKQAILDNIHQTWQEEANAISRLPEVTSEEALVKTVEKIAECTGKIVVAGCGTSGVAAKKLVHSFNCIERPAVFLTPSDAVHGTLGVLQKEDILILISKGGNTGELLNLIPACKTKGSTLIGVTENPDSVIAKEADIFFPVSVSKEPDPFNMLATASTMAVIASFDAVIVCLMTYMNYTKEQFSVIHPGGAVGNKLLNK”, the protein production is reported as “not failed”. With “MDKRFVQAHKEARWALWLTLLYLAAWLAAAYLPGVAIGFTGLPHWFEMACLLVPLLFILLCWAMVKLIFRDISLEDDDAV” the protein production was “failed”. With “MDKRRVVVTGVGAVTPIGNDAETSWENAKKGVNGVAKMTRLNPDDFPVKIAAELKDFDVEKYLEKKEARKMDRFTHYAIASAEMAVQDSGLVIDDSNANRVGVWIGSGIGGMETFETQYEIFLNRGHRRVSPFFVPMMIPDMGSGQVSIRFGAKGINSTTVTACATATNSIGDAFKVIERGDADAMITGGAEAPITKMSLAGFTANKALSLNPDPETACRPFDKDRDGFIIGEGAGIVILEEYEHAKARGAKIYAEIVGYGATGDAYHITAPAPNGEGAARAMKMAIDDAGLTPDKVDYINAHGTSTPYNDEYETQAIKTVFGEHAKKLAISSTKSMTGHTLGASGGIEAIFALLTIRDNIIAPTIHLKNQDEVCDLDYVPNEAREANVNVVISNSFGFGGHNATLVFKRIED” the protein production was “not failed”. With “MDKTKTFCKASLVSIALVLLLVSSAALAATENDTGNATIKDDYVSSTAMANTEGSSLPKVTETQITTSGFHPAIYGNRIVWTDYHDEECNIYMYDLSTKKETQITTSGDVSGSDIYGNRIVWSNYVYPNEVYMYDLSTSQKSTISGYNSYVDSLSIYGDKVVWGDSLDDYVSIFMHDLSTKEETLLTYDAYNPAIYGNRIVWEDRFDDNIYMYDISTKKQTRITNGGAADDPAIYGNRIVYASTHDGNTDIYMYDLSTKKQTQITSSPDAQTHPAIYGNRIVWEDDGGEDDGYTNHGIYMYDISTNQKMKISTKGSAYSPTIYGNNIVWEYYNNENGKLRNLHGHYFRTKTEPSYCCILCIPNFRKNTIKSYFY” the protein production was “failed”. With “MDKTNLGELINQGKSLLDESVEGFNVGEYHKGAKDGLTVEINKAEEVFNKEDATEEEINLAKESLEGAIARFNSLLIEESTGDFNGNGKIDIGDLAMVSKNIGSTTNTSLDLNKDGSIDEYEISFINHRILNLEHHHHHH” the protein production was “not failed”. In the case of “MDKVYLTWWQVDRAIFALAEKLREYKPDVIIGVARGGLIPAVRLSHILGDIPLKVIDVKFYKGIDERGEKPVITIPIHGDLKDKRVVIVDDVSDTGKTLEVVIEEVKKLGAKEIKIACLAMKPWTSVVPDYYVFRTEKWIVFPWEEFPVIEKE”, the protein production is reported as “not failed”. For “MDLDYGGVPLWINRFLGEPSVLTLKDRIDPGWYRAVNTQSCPLECDCPIQWPTAIYCDHRGLNQLPSGLPFRLQYLFLQGNNITSLGSRAFDNTTYLRWLILDHNELLSEQLDNVLFSSLTRLVNLFINHNNLTKVPAGLPSGLKQLRLAYNHIEKISEGDFQNLDSLTLILLQGNRLKTIEEGDFKGLGALNLLDLSHNFLDTFPKHLPPSVQQLYLSNNSLTGLSENSLHAFSGLRYLRLGHNKLRNERLDPGAFNLTSLVELDLSYNRLTEIPSVPITLQYLYLEVNHIQEFNVSSFCRTVGPTSYSRMKILRLDGNKLEYHKLPPDWVFCLRVLHNIYI”, the protein production was “failed”. In the case of “MDLELDEYYNKTLATENNTAATRNSDFPVWDDYKSSVDDLQYFLIGLYTFVSLLGFMGNLLILMALMKKRNQKTTVNFLIGNLAFSDILVVLFCSPFTLTSVLLDQWMFGKVMCHIMPFLQCVSVLVSTLILISIAIVRYHMIKHPISNNLTANHGYFLIATVWTLGFAICSPLPVFHSLVELQETFGSALLSSRYLCVESWPSDSYRIAFTISLLLVQYILPLVCLTVSHTSVCRSISCGLSNKENRLEENEMINLTLHPSKKSGPQVKLSGSHKWSYSFIKKHRRRYSKKTACVLPAPERPSQENHSRILPENFGSVRSQLSSSSKFIPGVPTCFEIKPEENSDVHELRVKRSVTRIKKRSRSVFYRLTILILVFAVSWMPLHLFHVVTDFNDNLISNRHFKLVYCICHLLGMMSCCLNPILYGFLNNGIKADLVSLIHCLHM”, the protein production is reported as “failed”. In the case of “MDLETLRARREAVLSLCARHGAVRVRVFGSVARGEAREDSDLDLLVAFEEGRTLLDHARLKLALEGLLGVRVDIVSERGLAPRLREQVLREAIPL”, the protein production is reported as “not failed”. With “MDLFPEEIYVFTPDGRIIELPMGATAIDFAYAVHTDVGNSCVGVKVDRKPYPMSRPIDSGQTIEVITSASARPNATWLEHHHHHH” the protein production was “failed”. With “MDLGILSQLLILLFVSMLLGVLFSKFKIPDVVAYILTGVLVGNGFLKIVSPSVPISDIESVSLFFIILAIGVEANTEYIYGNVRRSIILTISSFIAPSMLGFLYLQAVAHLPIIPAFVLSMSVGVPSISIISVLLMRYDLLKLNAGRLILSSVVLTDTSAFIILSSTYESVTKVLISFGFVVLFLFAIWLFDILIRRRAGRIIEWISRRETDNNMEYILFSLVIIAGLLVSTLFEFIGITYVLGAFYAGILIHEASIGQKYHKIILNTIKRINDSFFIPLFFSIAGISMILPKISIFMIFLPALLILMGASGGLTYLVSHRLIRSLEPIKVVSILGGRGAVGVIIATIAFQSGIIDVAVYSLALIGTVIFSLVMTPLVSIGNAPSQNDDVRYS” the protein production was “failed”. With “MDLKGGESMVDWKLMQEIIEAPGVSGYEHLGIRDIVVDVLKEVADEVKVDKLGNVIAHFKGSSPRIMVAAHMDKIGVMVNHIDKDGYLHIVPIGGVLPETLVAQRIRFFTEKGERYGVVGVLPPHLRRGQEDKGSKIDWDQIVVDVGASSKEEAEEMGFRVGTVGEFAPNFTRLNEHRFATPYLDDRICLYAMIEAARQLGDHEADIYIVGSVQEEVGLRGARVASYAINPEVGIAMDVTFAKQPHDKGKIVPELGKGPVMDVGPNINPKLRAFADEVAKKYEIPLQVEPSPRPTGTDANVMQINREGVATAVLSIPIRYMHSQVELADARDVDNTIKLAKALLEELKPMDFTP” the protein production was “not failed”. With “MDLLERLGLGGRRVLILHHDDLGLTHAQNGAYQALGLPTGSVMVPGAWASGVKGEDLGVHLVLTSEWPAPRMRPLTEGESLRDEAGYFPESLEALWRKARAEEVERELKAQIQAAAKLFSPTHLDAHQGAVLRPDLAEVYLRLAEAYRLVPLVPESLEGLGVPPPFLPELERLLYETPFPQVRFLDPYGLPPEERLGFYLDLAHLPPGLYYLVHHSALPTPEGRALPDWPTREADYFALSHPEVRRVLAEFHPLTWRAVREALF” the protein production was “not failed”. In the case of “MDLLKNIFKGDKVIWIIFLCLCLISIIEVFSAASTLTYKSGDHWGPITQHSIILMVGAVVVVLMHNIPYKWFQVFPVFLYPISVVLLAFVTLMGVITGDRVNGAARWMSFMGLQFQPSELAKMAVIIAVSFILSKKQDDEGANPKAFKYIMILTGLVCMLIAPENLSTAMLLFGVVVLMMFIGRVAFKKLAMLLGGLALVGCLGAVFLLAIPKDTDIPFLHRFDTWKSRITNFTEKEEVPAAKFDIDKDAQIAHARIAIATSNVIGKAPGNSIQRDFLSQAFSDFIFAIIIEELGLVGGAFVVILYIWLLVRTGRIAQKCERTFPAFLVMGIALMLVSQAILNMMVAVGLFPVTGQPLPLISKGGTSTLINCAYIGMILSVSRYTAYLEEKKENPAPLLTQSEGNETIASEAQTAAEPTAEVLNSDAKFEE”, the protein production is reported as “failed”. In the case of “MDLPVMPPVKPMLAKSVAKIPPGMHYEAKWDGFRAIVYRDGDEVELGSRTGKPLTRYFPELVVAVRERLPERCVVDGEIVIARDGHLDFDALTERIHPADSRVRTLAERTPASLVAFDLLALDDASLLDVGLADRRALLVRALSGVTPPVHVAPATDDIEVARRWFEQYEGAGLDGVVAKPLDLRYRQDERAMYKIKHERTADVVVAGYRFHKSGPVVGSLLLGLYDDRGLLQHVGVSAAFTMKRRAELVAELEPLRMDDARGHPWAAWAEEAAHESARLPGAPSRWSGKKDLSWVPLRPERVVEVAYDHMENGARFRHTARFRRWRPDRTPESCTYAQLEEPVRYDLAEILGGPLEHHHHHH”, the protein production is reported as “failed”. For “MDLSLLKALSEADAIASSEQEVRQILLEEAARLQKEVRFDGLGSVLIRLNESTGPKVMICAHMDEVGFMVRSISREGAIDVLPVGNVRMAARQLQPVRITTREECKIPGLLDGDRQGNDVSAMRVDIGARTYDEVMQAGIRPGDRVTFDTTFQVLPHQRVMGKAFDDRLSCYLLVTLLRELHDAELPAEVWLVASSSEEVGLRGGQTATRAVSPDVAIVLDTACWAKNFDYGAANHRQIGNGPMLVLSDKSLIAPPKLTAWIETVAAEIGVPLQADMFSNGGTDGGAVHLTGTGVPTLVMGPATRHGHCAASIADCRDILQMEQLLSALIQRLTRETVVQLTDFR”, the protein production was “not failed”. For “MDLSLSTRTVGDRTVVEVGGEIDVYTAPKLREQLVELVNDGNFHLVVDMEGVDFLDSTGLGVLVGGLKRVRAHEGSLRLVCNQERILKIFRITGLTKVFPIHTSVEEAVAATD”, the protein production was “failed”. For “MDLVKIDETLDDLQIKDIHIIQKKEGFRFGVDAVLLANYAKVKSNQTVIDLCSGTGIIPFIIQGKKSPRHITGIEIQEDMVQMANRTVLYNKFQEKIKFINEDIKNLAELKKLERVDVVTVNPPYKLRNSGIVNEFDKNAIARHEICCTLEDVIKAARTLLKDNGRLFMVHRPERLADILCLMREYKIEPKSIKMVYPSVNKAPNIVLIEGQRDGGAFLKWEKSLYIHKENGEYTEELNEIYGR”, the protein production was “failed”. For “MDLVLDLLATVSRWSRSNLSEISLALVGCLLVLFGTDVKAWAEQRLGGLAGALRVPFMALMVMIGSGAALIYATPWVVKGLSQFNNYALAPVLLVVLVLIGVVADRRG”, the protein production was “failed”. For “MDMNTLLSLSWHLMVPEFIILGAAILLSICDLFFKLNHRYVALGAIASVVLAIVSLITLYSEPTGDILNGSFVLDGFSKGFKTLLLGGAALILCIAMSDDKKNPIEDKGEYYYLFLMALLGAMFMASSVDFITLFVGLELLSLSSYILVGIRKKNLTSNEAAMKYVINGGIGTAITLFGMSYLYGITGSTNIVDMQKVFAGELAGGIQLLLALAFLLLLVGLSFKIATVPFHMWAPDVYEGAATPVTAFLGTISKIAGFLLIIRLFLMVFASVSVQGDTQSLYGRMSIYIAVLASITMIIGNVVALKQYNVKRLFAYSGIAHAGYLLVPLVALSPFTMDSMWFYMLAYMLMNIGAFAIIHGLILQSDKENITIFTGLYKRSPFTAIVMTIFILSLAGIPGTAGFIGKINIFLGALHVEPAHYVLASIMMGTTVISFVYYFRILQQMFFRTGEVEEKIRLPLNIKVVMSLCAISIVILGIMPMIGYNFFYEYFPLMKDFFFLGNVVQ”, the protein production was “failed”. For “MDMSLHFLSQGDLSGVWGRVYWRRRAGFKAIKIQSAFKAYLARKALWAGKCNGWDSSALTKEDIKAIWLRKQEGLKELFLQERRSPHMLEDSLSTPRQRVGLMDSLFVNYKKDGDKVSLWTSFVCENSKINNAKKSSLTTYQHNC”, the protein production was “not failed”. With “MDMVTVTAKTVEEAVTKALIELQTTSDKLTYEIVEKGSAGFLGIGSKPAIIRAKRKETLQDKAIEFLEQVFDAMNMAVDISVEYNETEKEMNVNLKGDDMGILIGKRGQTLDSLQYLVSLVVNKSSSDYIRVKLDTENYRERRKETLETLAKNIAYKVKRTKRSVSLEPMNPYERRIIHAALQNDKYVVTRSDGEEPFRHVIISLKRENRRDRNDRSDRNEK” the protein production was “not failed”.
